{
  "source": "patent US20190135888A1",
  "about": "(Harvard, published 2019)",
  "binders": {"B1": {"name": "human aP2 (fatty acid-binding protein, adipocyte, FABP4/aP2, Homo sapiens) (other)", "chain": "CDAFVGTWKLVSSENFDDYMKEVGVGFATRKVAGMAKPNMIISVNGDVITIKSESTFKNTEISFILGQEFDEVTADDRKVKSTITLDGGVLVHVQKWDGKSTTIKRKREDDKLVVECVMKGVTSTRVYERA", "notes": "Biotinylated with Sulfo-NHS-LC-Biotin for the Octet cross-reactivity assay; also called haP2; hFABP4"}, "B2": {"name": "CA33 (Rabbit Ab 909) (antibody, V domains shown)", "VH": "QSVEESGGRLVTPGTPLTLTCTVSGFSLSTYYMSWVRQAPGKGLEWIGIIYPSGSTYCASWAKGRFTISKASTTVDLKITSPTTEDTATYFCARPDNDGTSGYLSGFGLWGQGTLVTVSS", "VL": "DVVMTQTPASVSEPVGGTVTIKCQASEDISRYLVWYQQKPGQPPKRLIYKASTLASGVPSRFKGSGSGTDFTLTISDLECDDAATYYCQCTYGTYAGSFFYSFGGGTEVVVE", "notes": "Rabbit variable regions; also called Rabbit Antibody 909; antibody 909"}, "B3": {"name": "GCGR extracellular domain (GCGR-ecd) (receptor, UniProt P47871 26-136, looked up)", "chain": "AQVMDFLFEKWKLYGDQCHHNLSLLPPPTELVCNRTFDKYSCWPDTPANTTANISCPWYLPWHHKVQHRFVFKRCGPDGQWVRGPRGQPWRDASQCQMDGEEIEVQKEVAK", "notes": "extracellular domain; also called glucagon receptor extracellular domain; not shown: Hexahistidine and WELQ protease site added during cloning; MST was run with tag and with"}, "B4": {"name": "aP2 (recombinant aP2 of Example 1) (other)", "chain": "MCDAFVGTWKLVSSENFDDYMKEVGVGFATRKVAGMAKPNMIISVNGDLVTIRSESTFKNTEISFKLGVEFDEITADDRKVKSIITLDGGALVQVQKWDGKSTTIKRKRDGDKLVVECVMKGVTSTRVYERA", "notes": "Used unlabelled, and amine-biotinylated in the scintillation proximity assay; also called FABP4"}},
  "key": {"glucagon [1]": {"molecular_target": "T1, glucagon", "T1 construct": "This id is also used for the endogenous glucagon of mouse serum; also called biotin-glucagon; biotinylated glucagon", "T1 sequence (peptide, as listed by the source)": "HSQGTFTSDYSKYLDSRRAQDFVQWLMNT", "assay": "binding curve, Response (ΔFnorm [‰]) against Ligand Concentration [nM]; table under the plot"}, "glucagon [2]": {"molecular_target": "T1, glucagon", "assay": "binding curve, Response (ΔFnorm [‰]) against Ligand Concentration [nM]; the table under the plot has no unit, nM is that of the axis; paragraph 390 names an Octet system; which partner is titrated is not given"}, "[3]": {"molecular_target": "T2, hFABP5/hMal1 (recombinant human FABP5, Sino Biological Inc.) (human, UniProt Q01469 1-135, limits assumed)", "T2 construct": "Biotinylated with Sulfo-NHS-LC-Biotin and loaded on streptavidin biosensors; also called FABP5/Mal1; Mal1/FABP5", "T2 sequence (Q01469 whole entry)": "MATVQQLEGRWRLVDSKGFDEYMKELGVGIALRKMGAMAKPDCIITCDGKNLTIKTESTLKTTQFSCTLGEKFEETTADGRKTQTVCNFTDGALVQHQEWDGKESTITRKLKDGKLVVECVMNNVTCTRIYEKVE", "assay": "Octet RED384, biotinylated human FABP on streptavidin biosensors, antibody at 800 nM", "method": "The recombinant human proteins aP2 (generated at UCB in E. coli (see method below)), hFABP3 (Sino Biological Inc.) and hFABP5/hMall (Sino Biological Inc.) were biotinylated in a 5-fold molar excess of EZ-Link® Sulfo-NHS-LC-Biotin (Thermo Fisher Scientific) and purified from unbound biotin using a Zeba desalting column (Thermo Fisher Scientific). All binding studies were performed at 25° C. using a ForteBio Octet RED384 system (Pall ForteBio Corp.). […] Biosensors were then transferred back to PBS-T for 5 min. to measure dissociation. Non-specific binding of antibodies was monitored using unloaded biosensor tips."}, "[4]": {"molecular_target": "B1", "assay": "Biacore T200, anti-aP2 IgG captured on anti-mouse IgG Fc, aP2 titrated over it; steady-state fit for CA33"}, "[5]": {"molecular_target": "glucagon/aP2 complex (glucagon plus aP2, Example 1) (Mus musculus (Mouse), UniProt P04117 1-132, limits assumed)", "assay": "BLI (BLItz): GCGR-ecd on biotin-glucagon immobilized on streptavidin sensors, in the presence of aP2"}, "[6]": {"molecular_target": "B3", "assay": "binding curve, Response (ΔFnorm [‰]) against Ligand Concentration [nM]; table under the plot"}, "[7]": {"molecular_target": "B3", "assay": "binding curve, Response (ΔFnorm [‰]) against Ligand Concentration [nM]; the table under the plot has no unit, nM is that of the axis; paragraph 390 names an Octet system; which partner is titrated is not given"}},
  "data": [
    {"binder": "B1", "values": [
      {"measurement": "logEC50", "setting": "glucagon [1]", "result": 1.31},
      {"measurement": "EC50", "setting": "glucagon [2]", "result": 20.3, "unit": "nM"}
    ]},
    {"binder": "B2", "values": [
      {"measurement": "binding result", "setting": "[3]", "result": "no binding (tested: 800 nM)"},
      {"measurement": "Kd", "setting": "[4]", "result": 2830, "unit": "nM"}
    ]},
    {"binder": "B3", "values": [
      {"measurement": "Kd", "setting": "[5]", "result": 54.1, "unit": "nM"}
    ]},
    {"binder": "B4", "values": [
      {"measurement": "logEC50", "setting": "[6]", "result": 2.51},
      {"measurement": "EC50", "setting": "[7]", "result": 327, "unit": "nM"}
    ]}
  ]
}
